Data published in doi:10.1101/2023.04.21.537819, “DNA damage-induced interaction between a lineage addiction oncogenic transcription factor and the MRN complex shapes a tissue-specific DNA Damage Response and cancer predisposition” (bioRxiv, 2023).

Molecular target: T1, mCherry-LacR-MITF (human, UniProt O75030-9 1-419)
T1 construct: MITF, human; In the self-association test the second copy was MITF-GFP (pEGFP-C1-MITF, Ngeow et al. 2018) in place of mCherry-LacR; also called LacR-mCherry-MITF; MITF WT; source: U2OS-LacO#13 cells, transfected, in cells; not shown: mCherry-LacR, N-terminal, kept
T1 sequence (looked up): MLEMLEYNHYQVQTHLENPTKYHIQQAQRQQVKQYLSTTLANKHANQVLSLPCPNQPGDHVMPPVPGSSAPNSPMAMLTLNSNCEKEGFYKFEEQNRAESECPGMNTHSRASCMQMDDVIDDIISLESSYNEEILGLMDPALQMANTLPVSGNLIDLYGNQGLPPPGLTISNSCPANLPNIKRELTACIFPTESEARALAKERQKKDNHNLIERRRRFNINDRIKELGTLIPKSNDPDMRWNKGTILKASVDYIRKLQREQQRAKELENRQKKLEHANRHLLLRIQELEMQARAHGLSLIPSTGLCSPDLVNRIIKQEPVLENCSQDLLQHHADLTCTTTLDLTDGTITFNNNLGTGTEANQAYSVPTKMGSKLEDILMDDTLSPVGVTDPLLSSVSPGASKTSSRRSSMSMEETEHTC
Assay: LacR/LacO nuclear tethering assay; U2OS-LacO#13 cells transfected 24 h with an mCherry-LacR bait (tethered at the LacO array) and a GFP-tagged prey; fixed, confocal microscopy; ratio of GFP fluorescence inside the mCherry dot to the rest of the nucleus
Conditions: partners not purified

median enrichment of GFP at the mCherry dot over the rest of the nucleus: 7 fold
B1: NBS1-GFP (natural protein, UniProt O60934 1-754, looked up)
chain: MWKLLPAAGPAGGEPYRLLTGVEYVVGRKNCAILIENDQSISRNHAVLTANFSVTNLSQTDEIPVLTLKDNSKYGTFVNEEKMQNGFSRTLKSGDGITFGVFGSKFRIEYEPLVACSSCLDVSGKTALNQAILQLGGFTVNNWTEECTHLVMVSVKVTIKTICALICGRPIVKPEYFTEFLKAVESKKQPPQIESFYPPLDEPSIGSKNVDLSGRQERKQIFKGKTFIFLNAKQHKKLSSAVVFGGGEARLITEENEEEHNFFLAPGTCVVDTGITNSQTLIPDCQKKWIQSIMDMLQRQGLRPIPEAEIGLAVIFMTTKNYCDPQGHPSTGLKTTTPGPSLSQGVSVDEKLMPSAPVNTTTYVADTESEQADTWDLSERPKEIKVSKMEQKFRMLSQDAPTVKESCKTSSNNNSMVSNTLAKMRIPNYQLSPTKLPSINKSKDRASQQQQTNSIRNYFQPSTKKRERDEENQEMSSCKSARIETSCSLLEQTQPATPSLWKNKEQHLSENEPVDTNSDNNLFTDTDLKSIVKNSASKSHAAEKLRSNKKREMDDVAIEDEVLEQLFKDTKPELEIDVKVQKQEEDVNVRKRPRMDIETNDTFSDEAVPESSKISQENEIGKKRELKEDSLWSAKEISNNDKLQDDSEMLPKKLLLTEFRSLVIKNSTSRNPSGINDDYGQLKNFKKFKKVTYPGAGKLPHIIGGSDLIAHHARKNTELEEWLRQEMEVQNQHAKEESLADDLFRYNPYLKRRR
notes: NBS1 (nibrin), component of the MRN complex; plasmid pcDNA3.1(+)-C-eGFP-NBS1 from GenScript; also called GFP-NBS1; pcDNA3.1(+)-C-eGFP-NBS1; source: U2OS-LacO#13 cells, transfected, in cells; not shown: eGFP, C-terminal, kept
